Where a chain is given by its changes, count along the chain named. Values belong to the binder of their own block, whether it stands above or below them.
Biological target: CD3
Test: Octet, crude lysate

Chain of CD3 (P07766 23-126): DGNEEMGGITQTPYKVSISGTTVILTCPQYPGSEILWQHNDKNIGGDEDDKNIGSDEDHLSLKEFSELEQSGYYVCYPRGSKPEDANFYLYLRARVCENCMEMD

- Kd: 9.8 nM
B1: AC3425 (bispecific antibody, V domains shown)
VH: EVQLLESGGGIVQPGGSLKLSCAASGFTFNTYAMNWVRQAPGKGLEWVARIRSKYNNYATYYADSVKDRFTISRDDSKNTVDLQMNNLKTEDTAVYYCVRHENFGNSYVSWFAHWGQGTLVTVSS
VL: ELVVTQEPSLTVSPGGTVTLTCRSSNGAVTSSNYANWVQQKPGQAPRGLIGGTNKRAPGTPARFSGSLLGGKAALTLSGVQPEDEAVYYCALWYPNLWVFGGGTKLTVL

- Kd: 11.5 nM
B2: AC3398 (bispecific antibody, V domains shown)
VH: B1 VH with Y55A, D82Y
VL: B1 VL

- Kd: 18.1 nM
B3: AC3368 (bispecific antibody, V domains shown)
VH: B1 VH with W47E, D82Y
VL: B1 VL

- Kd: 121 nM
B4: AC3426 (bispecific antibody, V domains shown)
VH: B1 VH with D82G
VL: B1 VL

- Kd: 4.6 nM
B5: AC3433 (bispecific antibody, V domains shown)
VH: B1 VH with D82Y
VL: B1 VL with L69Q

- Kd: 3.8 nM
B6: AC3399 (bispecific antibody, V domains shown)
VH: B1 VH with Y55R, D82Y
VL: B1 VL

- Kd: 20.1 nM
B7: AC3400 (bispecific antibody, V domains shown)
VH: B1 VH with Y55G, D82Y
VL: B1 VL

- Kd: 6.1 nM
B8: AC3435 (bispecific antibody, V domains shown)
VH: B1 VH with D82Y
VL: B1 VL with L69D

- Kd: 8.3 nM
B9: AC3369 (bispecific antibody, V domains shown)
VH: B1 VH with V48A, D82Y
VL: B1 VL

- Kd: 4.8 nM
B10: AC3430 (bispecific antibody, V domains shown)
VH: B1 VH with D82Y, N87S
VL: B1 VL

- Kd: 11.2 nM
B11: AC3372 (bispecific antibody, V domains shown)
VH: B1 VH with V48S, D82Y
VL: B1 VL

- Kd: 434 nM
B12: AC3389 (bispecific antibody, V domains shown)
VH: B1 VH with R52Q, D82Y
VL: B1 VL

- Kd: 5.1 nM
B13: AC3401 (bispecific antibody, V domains shown)
VH: B1 VH with Y55K, D82Y
VL: B1 VL

- Kd: 8.3 nM
B14: AC3438 (bispecific antibody, V domains shown)
VH: B1 VH with D82Y
VL: B1 VL with L68N

- Kd: 7.3 nM
B15: AC3436 (bispecific antibody, V domains shown)
VH: B1 VH with D82Y
VL: B1 VL with L68S

- Kd: 7.1 nM
B16: AC3429 (bispecific antibody, V domains shown)
VH: B1 VH with D82Y, N87Q
VL: B1 VL

- Kd: 71.5 nM
B17: AC3371 (bispecific antibody, V domains shown)
VH: B1 VH with V48G, D82Y
VL: B1 VL

- Kd: 5.2 nM
B18: AC3431 (bispecific antibody, V domains shown)
VH: B1 VH with D82Y, N87Y
VL: B1 VL

- Kd: 4.9 nM
B19: AC3434 (bispecific antibody, V domains shown)
VH: B1 VH with D82Y
VL: B1 VL with G70E

- Kd: 4.8 nM
B20: AC3396 (bispecific antibody, V domains shown)
VH: B1 VH with S53T, D82Y
VL: B1 VL

- Kd: 8.9 nM
B21: AC3439 (bispecific antibody, V domains shown)
VH: B1 VH with D82Y
VL: B1 VL with L68T

- Kd: 34300 nM
B22: AC3374 (bispecific antibody, V domains shown)
VH: B1 VH with V48W, D82Y
VL: B1 VL

- Kd: 9.6 nM
B23: AC3427 (bispecific antibody, V domains shown)
VH: B1 VH with D82S
VL: B1 VL

- Kd: 40.2 nM
B24: AC3367 (bispecific antibody, V domains shown)
VH: B1 VH with W47D, D82Y
VL: B1 VL

- Kd: 165 nM
B25: AC3370 (bispecific antibody, V domains shown)
VH: B1 VH with V48E, D82Y
VL: B1 VL

- Kd: 4.5 nM
B26: AC3377 (bispecific antibody, V domains shown)
VH: B1 VH with A49G, D82Y
VL: B1 VL

- Kd: 425 nM
B27: AC3385 (bispecific antibody, V domains shown)
VH: B1 VH with I51T, D82Y
VL: B1 VL

- Kd: 5.7 nM
B28: AC3373 (bispecific antibody, V domains shown)
VH: B1 VH with V48T, D82Y
VL: B1 VL

- Kd: 1180 nM
B29: AC3383 (bispecific antibody, V domains shown)
VH: B1 VH with I51A, D82Y
VL: B1 VL

- Kd: 3.2 nM
B30: AC3437 (bispecific antibody, V domains shown)
VH: B1 VH with D82Y
VL: B1 VL with L68K

- Kd: 51 nM
B31: AC3397 (bispecific antibody, V domains shown)
VH: B1 VH with K54P, D82Y
VL: B1 VL

- Kd: 5.9 nM
B32: AC3428 (bispecific antibody, V domains shown)
VH: B1 VH with D82Y, N87E
VL: B1 VL
